Data taken from patent publication US20210205286A1.

What was measured:
USP7 (endogenous) [1] = target: USP7 (endogenous) (UniProt Q93009); assay: APEX2-Gal9 proximity biotinylation, SILAC LC-MS/MS, GPN; second of three experiments
USP7 (endogenous) [2] = target: USP7 (endogenous) (UniProt Q93009); assay: APEX2-Gal9 proximity biotinylation, SILAC LC-MS/MS, LLOMe; first of three experiments
USP7 (endogenous) [3] = target: USP7 (endogenous) (UniProt Q93009); assay: APEX2-Gal9 proximity biotinylation, SILAC LC-MS/MS, LLOMe; third of three experiments
USP7 (endogenous) [4] = target: USP7 (endogenous) (UniProt Q93009); assay: APEX2-Gal9 proximity biotinylation, SILAC LC-MS/MS, GPN; third of three experiments
USP7 (endogenous) [5] = target: USP7 (endogenous) (UniProt Q93009); assay: APEX2-Gal9 proximity biotinylation, SILAC LC-MS/MS, LLOMe; second of three experiments
USP7 (endogenous) [6] = target: USP7 (endogenous) (UniProt Q93009); assay: APEX2-Gal9 proximity biotinylation, SILAC LC-MS/MS, GPN; first of three experiments

Chain of USP7 (endogenous) (Q93009 whole entry): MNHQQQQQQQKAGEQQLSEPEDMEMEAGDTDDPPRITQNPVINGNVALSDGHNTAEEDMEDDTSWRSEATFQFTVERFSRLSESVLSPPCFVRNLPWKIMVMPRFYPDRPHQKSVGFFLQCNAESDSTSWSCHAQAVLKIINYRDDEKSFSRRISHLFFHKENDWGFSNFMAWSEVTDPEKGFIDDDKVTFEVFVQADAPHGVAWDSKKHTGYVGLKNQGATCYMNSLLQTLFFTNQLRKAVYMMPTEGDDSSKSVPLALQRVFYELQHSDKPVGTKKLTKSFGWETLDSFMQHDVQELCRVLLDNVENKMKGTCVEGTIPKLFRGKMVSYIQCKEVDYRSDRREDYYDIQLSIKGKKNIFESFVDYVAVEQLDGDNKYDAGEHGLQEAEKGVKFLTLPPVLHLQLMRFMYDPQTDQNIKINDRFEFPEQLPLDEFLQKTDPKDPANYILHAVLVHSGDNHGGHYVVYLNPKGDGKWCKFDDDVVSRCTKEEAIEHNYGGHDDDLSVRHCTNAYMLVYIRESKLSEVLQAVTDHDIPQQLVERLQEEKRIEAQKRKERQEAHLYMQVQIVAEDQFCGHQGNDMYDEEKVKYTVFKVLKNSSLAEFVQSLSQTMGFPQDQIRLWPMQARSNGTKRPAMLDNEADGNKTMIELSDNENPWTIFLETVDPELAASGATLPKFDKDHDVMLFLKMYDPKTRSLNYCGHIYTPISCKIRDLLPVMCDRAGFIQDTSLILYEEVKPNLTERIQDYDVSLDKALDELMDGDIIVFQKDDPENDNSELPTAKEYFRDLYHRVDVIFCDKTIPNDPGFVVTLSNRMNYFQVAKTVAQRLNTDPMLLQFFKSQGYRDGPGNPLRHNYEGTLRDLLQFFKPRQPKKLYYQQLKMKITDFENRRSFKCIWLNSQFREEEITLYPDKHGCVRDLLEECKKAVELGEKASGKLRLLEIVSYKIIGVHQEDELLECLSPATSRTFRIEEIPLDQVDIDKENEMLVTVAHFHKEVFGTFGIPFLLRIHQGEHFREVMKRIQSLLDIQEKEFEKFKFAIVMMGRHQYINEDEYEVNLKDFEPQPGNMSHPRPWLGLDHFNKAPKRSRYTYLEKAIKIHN

APEX2-myc-Gal9 (from UniProt O00182 1-323)
peptide counts (peptide counts) (USP7 (endogenous) [1]): 4 | peptide counts (peptide counts) (USP7 (endogenous) [2]): 2 | peptide counts (peptide counts) (USP7 (endogenous) [3]): 2 | peptide counts (peptide counts) (USP7 (endogenous) [4]): 3 | peptide counts (peptide counts) (USP7 (endogenous) [5]): 3 | peptide counts (peptide counts) (USP7 (endogenous) [6]): 3
